Tests used:
[1] = molecular target: CcpA;HPr (Streptococcus pneumoniae D39?;Streptococcus pneumoniae D39) (UniProt A0A0H2ZQ65+A0A0H2ZP52); experiment: EMSA; details: Beyotime chemiluminescent EMSA kit, 5X binding buffer (composition and pH not stated), 10 ul, room temperature, 10 min then 20 min with labeled probe, 6% …
[2] = molecular target: CcpA (Streptococcus pneumoniae D39?) (UniProt A0A0H2ZQ65); experiment: EMSA; details: Beyotime chemiluminescent EMSA kit, 5X binding buffer (composition and pH not stated), 10 ul, room temperature, 10 min then 20 min with labeled probe, 6% …

## TACACATCTGCTTCTAAAATATTGTTAGAAAACGATTTGACTGTCCTGATCAATTTGTCATGTTCTTATTTCATTTTACTATATTTTTGGTTCGCGGGAAGTCTACTAAGATACTTAAAGATGCAGATAGTGAAAAAAGGTGTAGACATTACCGTAAAAAAGTGATATAATCGTAAGATGTTCAATGTATAGGTGTTAATCATGAGTAGACGTTTTAA (double strand) [Pcps promoter probe]
[1]
  binding: binds
[2]
  binding: binds
